Experimental findings from the supplement of paper PMC5998384 are described below.

In data set [1] the test system is HeLa Kyoto. Kind of data set: melting temperature (median over replicates), in situ; higher = more thermally stable.
Data set [2] concerns HeLa Kyoto. In words: solubility in G1/S (NP-40 vs SDS abundance) (log2 ratio); higher = more soluble. Particulars: cell cycle stage: G1/S.
Data set [3] deals with HeLa Kyoto. In words: thermal stability score vs G1/S (z-score of summed log2 fold changes over temperatures); higher = more thermally stable than in G1/S.
The subject of data set [4] is HeLa Kyoto. In words: solubility change mitosis vs G1/S (difference of NP-40 vs SDS log2 ratios) (log2 ratio difference); higher = more soluble in mitosis.
Where [5] appears, read: cell cycle stage: early G1 (4.5 h after nocodazole release).
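For melting temperature (median over replicates), in situ in this document: HeLa Kyoto cells synchronized by double thymidine or nocodazole block, proteins quantified by TMT10plex mass spectrometry, three independent biological replicates.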
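For solubility change mitosis vs G1/S (difference of NP-40 vs SDS log2 ratios) in this document: synchronized HeLa Kyoto cells (double thymidine block for G1/S, nocodazole release for mitosis), protein amounts in NP-40 versus SDS lysates quantified by mass spectrometry, three biological replicates.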
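For solubility in G1/S (NP-40 vs SDS abundance) in this document: HeLa Kyoto cells arrested at G1/S by double thymidine block, proteins quantified by TMT10plex mass spectrometry in mild NP-40 versus SDS extracts, three biological replicates.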
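For thermal stability score vs G1/S (z-score of summed log2 fold changes over temperatures) in this document: synchronized HeLa Kyoto cells, proteins quantified by TMT10plex mass spectrometry, three biological replicates, mitosis taken 0.5 h after nocodazole release, G1/S directly after double thymidine block.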

For “MILNSLSLCYHNKLILAPMVRVGTLPMRLLALDYGADIVYCEELIDLKMIQCKRVVNEVLSTVDFVAPDDRVVFRTCEREQNRVVFQMGTSDAERALAVARLVENDVAGIDVNMGCPKQYSTKGGMGAALLSDPDKIEKILSTLVKGTRRPVTCKIRILPSLEDTLSLVKRIERTGIAAIAVHGRKREERPQHPVSCEVIKAIADTLSIPVIANGGSHDHIQQYSDIEDFRQATAASSVMVARAAMWNPSIFLKEGLRPLEEVMQKYIRYAVQYDNHYTNTKYCLCQMLREQLESPQGRLLHAAQSSREICEAFGLGAFYEETTQELDAQQARLSAKTSEQTGEPAEDTSGVIKMAVKFDRRAYPAQITPKMCLLEWCRREKLAQPVYETVQRPLDRLFSSIVTVAEQKYQSTLWDKSKKLAEQAAAIVCLRSQGLPEGRLGEESPSLHKRKREAPDQDPGGPRAQELAQPGDLCKKPFVALGSGEESPLEGW [DUS2]”, the values for the melting temperature in data set [1] (cell cycle stage: G1/S) and in data set [1] (cell cycle stage: mitosis) were 50.3 °C and 50.9 °C, respectively. The “solubility in G1/S (log2)” value in data set [2] was -0.0157. Besides, the thermal stability score in data set [3] (setting [5]) is 0.209; in data set [3] (cell cycle stage: mitosis), 0.349. In addition, the “solubility change mitosis (log2)” value in data set [4] was -0.0821.

On to “MSSRKQGSQPRGQQSAEEENFKKPTRSNMQRSKMRGASSGKKTAGPQQKNLEPALPGRWGGRSAENPPSGSVRKTRKNKQKTPGNGDGGSTSEAPQPPRKKRARADPTVESEEAFKNRMEVKVKIPEELKPWLVEDWDLVTRQKQLFQLPAKKNVDAILEEYANCKKSQGNVDNKEYAVNEVVAGIKEYFNVMLGTQLLYKFERPQYAEILLAHPDAPMSQVYGAPHLLRLFVRIGAMLAYTPLDEKSLALLLGYLHDFLKYLAKNSASLFTASDYKVASAEYHRKAL [MORF4L2]”, for which the melting temperature in data set [1] (cell cycle stage: G1/S) was 52.9 °C; in data set [1] (cell cycle stage: mitosis), 52.1 °C. The “solubility in G1/S (log2)” value in data set [2] is 0.0399. Besides, the thermal stability score in data set [3] (setting [5]) amounted to 0.948; in data set [3] (cell cycle stage: mitosis), 0.257. For the same substance, the “solubility change mitosis (log2)” value in data set [4] turned out to be 0.484.

Consider “MAGAGPAPGLPGAGGPVVPGPGAGIPGKSGEERLKEMEAEMALFEQEVLGAPVPGIPTAVPAVPTVPTVPTVEAMQVPAAPVIRPIIATNTYQQVQQTLEARAAAAATVVPPMVGGPPFVGPVGFGPGDRSHLDSPEAREAMFLRRAAVAPQRAPILRPAFVPHVLQRADSALSSAAAGPRPMALRPPHQALVGPPLPGPPGPPMMLPPMARAPGPPLGSMAALRPPLEEPAAPRELGLGLGLGLKEKEEAVVAAAAGLEEASAAVAVGAGGAPAGPAVIGPSLPLALAMPLPEPEPLPLPLEVVRGLLPPLRIPELLSLRPRPRPPRPEPPPGLMALEVPEPLGEDKKKGKPEKLKRCIRTAAGSSWEDPSLLEWDADDFRIFCGDLGNEVNDDILARAFSRFPSFLKAKVIRDKRTGKTKGYGFVSFKDPSDYVRAMREMNGKYVGSRPIKLRKSMWKDRNLDVVRKKQKEKKKLGLR [RBM42]”, for which the melting temperature in data set [1] (cell cycle stage: G1/S) stood at 51.6 °C; in data set [1] (cell cycle stage: mitosis), 50.1 °C. The “solubility in G1/S (log2)” value in data set [2] was found to be 0.0912. Further, the values for the thermal stability score in data set [3] (setting [5]) and in data set [3] (cell cycle stage: mitosis) were -2.37 and -2.6, respectively. The “solubility change mitosis (log2)” value in data set [4] is 0.019.

Take CIT: the results for the melting temperature in data set [1] (cell cycle stage: G1/S) and in data set [1] (cell cycle stage: mitosis) were 50.1 °C and 50.4 °C, respectively. For the same substance, the “solubility in G1/S (log2)” value in data set [2] was -0.0433. The values for the thermal stability score in data set [3] (setting [5]) and in data set [3] (cell cycle stage: mitosis) were 0.287 and 0.352, respectively. Further, the “solubility change mitosis (log2)” value in data set [4] was -0.113.

With “MASSSGNDDDLTIPRAAINKMIKETLPNVRVANDARELVVNCCTEFIHLISSEANEICNKSEKKTISPEHVIQALESLGFGSYISEVKEVLQECKTVALKRRKASSRLENLGIPEEELLRQQQELFAKARQQQAELAQQEWLQMQQAAQQAQLAAASASASNQAGSSQDEEDDDDI [DR1]”, the figures for the melting temperature in data set [1] (cell cycle stage: G1/S) and in data set [1] (cell cycle stage: mitosis) were 58.2 °C and 52.7 °C, respectively. In data set [2], the “solubility in G1/S (log2)” value is -0.174. In addition, the thermal stability score was -1.34 in data set [3] (setting [5]) and -0.438 in data set [3] (cell cycle stage: mitosis). For the same substance, the “solubility change mitosis (log2)” value in data set [4] was determined as 0.91.

Turning to “MSGYSSDRDRGRDRGFGAPRFGGSRAGPLSGKKFGNPGEKLVKKKWNLDELPKFEKNFYQEHPDLARRTAQEVETYRRSKEITVRGHNCPKPVLNFYEANFPANVMDVIARQNFTEPTAIQAQGWPVALSGLDMVGVAQTGSGKTLSYLLPAIVHINHQPFLERGDGPICLVLAPTRELAQQVQQVAAEYCRACRLKSTCIYGGAPKGPQIRDLERGVEICIATPGRLIDFLECGKTNLRRTTYLVLDEADRMLDMGFEPQIRKIVDQIRPDRQTLMWSATWPKEVRQLAEDFLKDYIHINIGALELSANHNILQIVDVCHDVEKDEKLIRLMEEIMSEKENKTIVFVETKRRCDELTRKMRRDGWPAMGIHGDKSQQERDWVLNEFKHGKAPILIATDVASRGLDVEDVKFVINYDYPNSSEDYIHRIGRTARSTKTGTAYTFFTPNNIKQVSDLISVLREANQAINPKLLQLVEDRGSGRSRGRGGMKDDRRDRYSAGKRGGFNTFRDRENYDRGYSSLLKRDFGAKTQNGVYSAANYTNGSFGSNFVSAGIQTSFRTGNPTGTYQNGYDSTQQYGSNVPNMHNGMNQQAYAYPATAAAPMIGYPMPTGYSQ [DDX5]”, the melting temperature worked out at 47.2 °C in data set [1] (cell cycle stage: G1/S) and 48.4 °C in data set [1] (cell cycle stage: mitosis). The “solubility in G1/S (log2)” value in data set [2] was -0.551. Moreover, the thermal stability score came out at 3.64 in data set [3] (setting [5]) and 11.3 in data set [3] (cell cycle stage: mitosis). Besides, in data set [4], the “solubility change mitosis (log2)” value turned out to be 0.397.

For “MGRVQLFEISLSHGRVVYSPGEPLAGTVRVRLGAPLPFRAIRVTCIGSCGVSNKANDTAWVVEEGYFNSSLSLADKGSLPAGEHSFPFQFLLPATAPTSFEGPFGKIVHQVRAAIHTPRFSKDHKCSLVFYILSPLNLNSIPDIEQPNVASATKKFSYKLVKTGSVVLTASTDLRGYVVGQALQLHADVENQSGKDTSPVVASLLQKVSYKAKRWIHDVRTIAEVEGAGVKAWRRAQWHEQILVPALPQSALPGCSLIHIDYYLQVSLKAPEATVTLPVFIGNIAVNHAPVSPRPGLGLPPGAPPLVVPSAPPQEEAEAEAAAGGPHFLDPVFLSTKSHSQRQPLLATLSSVPGAPEPCPQDGSPASHPLHPPLCISTGATVPYFAEGSGGPVPTTSTLILPPEYSSWGYPYEAPPSYEQSCGGVEPSLTPES [ARRDC1]”, the melting temperature was 53.2 °C in data set [1] (cell cycle stage: G1/S) and 52.1 °C in data set [1] (cell cycle stage: mitosis). The “solubility in G1/S (log2)” value in data set [2] is 0.131. Further, the results for the thermal stability score in data set [3] (setting [5]) and in data set [3] (cell cycle stage: mitosis) were -1.09 and -1.63, respectively. For the same substance, the “solubility change mitosis (log2)” value in data set [4] is -0.0855.

Consider “MALLVLGLVSCTFFLAVNGLYSSSDDVIELTPSNFNREVIQSDSLWLVEFYAPWCGHCQRLTPEWKKAATALKDVVKVGAVDADKHHSLGGQYGVQGFPTIKIFGSNKNRPEDYQGGRTGEAIVDAALSALRQLVKDRLGGRSGGYSSGKQGRSDSSSKKDVIELTDDSFDKNVLDSEDVWMVEFYAPWCGHCKNLEPEWAAAASEVKEQTKGKVKLAAVDATVNQVLASRYGIRGFPTIKIFQKGESPVDYDGGRTRSDIVSRALDLFSDNAPPPELLEIINEDIAKRTCEEHQLCVVAVLPHILDTGAAGRNSYLEVLLKLADKYKKKMWGWLWTEAGAQSELETALGIGGFGYPAMAAINARKMKFALLKGSFSEQGINEFLRELSFGRGSTAPVGGGAFPTIVEREPWDGRDGELPVEDDIDLSDVELDDLGKDEL [PDIA6]”, for which the melting temperature turned out to be 55.1 °C in data set [1] (cell cycle stage: G1/S) and 56.2 °C in data set [1] (cell cycle stage: mitosis). The “solubility in G1/S (log2)” value in data set [2] is 0.44. Also, the results for the thermal stability score in data set [3] (setting [5]) and in data set [3] (cell cycle stage: mitosis) were 4.84 and 4.76, respectively. Besides, the “solubility change mitosis (log2)” value in data set [4] was -0.1.

As to “MASEKPLAAVTCTAPVNIAVIKYWGKRDEELVLPINSSLSVTLHQDQLKTTTTAVISKDFTEDRIWLNGREEDVGQPRLQACLREIRCLARKRRNSRDGDPLPSSLSCKVHVASVNNFPTAAGLASSAAGYACLAYTLARVYGVESDLSEVARRGSGSACRSLYGGFVEWQMGEQADGKDSIARQVAPESHWPELRVLILVVSAEKKLTGSTVGMRASVETSPLLRFRAESVVPARMAEMARCIRERDFPSFAQLTMKDSNQFHATCLDTFPPISYLNAISWRIIHLVHRFNAHHGDTKVAYTFDAGPNAVIFTLDDTVAEFVAAVWHGFPPGSNGDTFLKGLQVRPAPLSAELQAALAMEPTPGGVKYIIVTQVGPGPQILDDPCAHLLGPDGLPKPAA [MVD]”, the melting temperature in data set [1] (cell cycle stage: G1/S) and in data set [1] (cell cycle stage: mitosis) was 52.6 °C each time. For the same substance, the “solubility in G1/S (log2)” value in data set [2] is 0.321. Besides, the thermal stability score in data set [3] (setting [5]) is -0.632; in data set [3] (cell cycle stage: mitosis), -0.962. Besides, the “solubility change mitosis (log2)” value in data set [4] is -0.138.

As for “MFTLAEVASLNDIQPTYRILKPWWDVFMDYLAVVMLMVAIFAGTMQLTKDQVVCLPVLPSPVNSKAHTPPGNAEVTTNIPKMEAATNQDQDGRTTNDISFGTSAVTPDIPLRATYPRTDFALPNQEAKKEKKDPTGRKTNLDFQQYVFINQMCYHLALPWYSKYFPYLALIHTIILMVSSNFWFKYPKTCSKVEHFVSILGKCFESPWTTKALSETACEDSEENKQRITGAQTLPKHVSTSSDEGSPSASTPMINKTGFKFSAEKPVIEVPSMTILDKKDGEQAKALFEKVRKFRAHVEDSDLIYKLYVVQTVIKTAKFIFILCYTANFVNAISFEHVCKPKVEHLIGYEVFECTHNMAYMLKKLLISYISIICVYGFICLYTLFWLFRIPLKEYSFEKVREESSFSDIPDVKNDFAFLLHMVDQYDQLYSKRFGVFLSEVSENKLREISLNHEWTFEKLRQHISRNAQDKQELHLFMLSGVPDAVFDLTDLDVLKLELIPEAKIPAKISQMTNLQELHLCHCPAKVEQTAFSFLRDHLRCLHVKFTDVAEIPAWVYLLKNLRELYLIGNLNSENNKMIGLESLRELRHLKILHVKSNLTKVPSNITDVAPHLTKLVIHNDGTKLLVLNSLKKMMNVAELELQNCELERIPHAIFSLSNLQELDLKSNNIRTIEEIISFQHLKRLTCLKLWHNKIVTIPPSITHVKNLESLYFSNNKLESLPVAVFSLQKLRCLDVSYNNISMIPIEIGLLQNLQHLHITGNKVDILPKQLFKCIKLRTLNLGQNCITSLPEKVGQLSQLTQLELKGNCLDRLPAQLGQCRMLKKSGLVVEDHLFDTLPLEVKEALNQDINIPFANGI [LRRC8D]”, the results for the melting temperature in data set [1] (cell cycle stage: G1/S) and in data set [1] (cell cycle stage: mitosis) were 53.7 °C and 53 °C, respectively. Also, the “solubility in G1/S (log2)” value in data set [2] is 0.141. In addition, the thermal stability score in data set [3] (setting [5]) was 0.491; in data set [3] (cell cycle stage: mitosis) it was 0.22. Besides, the “solubility change mitosis (log2)” value in data set [4] is -0.126.
